Results published in PMC6414199, “Bim escapes displacement by BH3-mimetic anti-cancer drugs by double-bolt locking both Bcl-XL and Bcl-2” (eLife, 2019).

Tests used:
[1] = target: T1, Bcl-XL single-cysteine mutant 152C, Alexa647-labelled (human, UniProt Q07817-1 1-233, Alexa 647-maleimide on the single cysteine at 152); experiment: FRET or BRET; 4 nM Alexa568-labelled BimL or BimL-dCTS with increasing Alexa647-labelled Bcl-XL in samples containing mouse liver mitochondria; apparent Kd; conditions: both partners purified
[2] = target: T1, Bcl-XL single-cysteine mutant 152C, …; experiment: FRET or BRET; purified Alexa568-labelled BH3 protein (10 nM) and Alexa647-labelled Bcl-XL (40 nM) with liposomes, ABT-263 titrated in; 37 C, 1 h; relative displacements, not absolute affinity; conditions: both partners purified
mCerulean3-Bcl-2 = target: T2, mCerulean3-Bcl-2 (human, UniProt P10415 1-239); experiment: FRET or BRET; FLIM-FRET in live MCF-7 cells: mCer3-Bcl-XL or mCer3-Bcl-2 stably expressed (donor), Venus-BH3 protein transiently expressed (acceptor); binding curves of FLIM-FRET efficiency against the Venus:mCer3 intensity ratio, 25 C; untreated, DMSO, 20 uM ABT-263 (18-24 h) or 1.25-20 uM A-1155463, A-1331852, ABT-263; R values interpolated at ratio 0.5 (Bcl-XL) or 0.25 (Bcl-2), ^VBad4E signal subtracted; conditions: partners not purified
T2 construct: Bcl-2, human; GGS linker between mCerulean3 and Bcl-2; also called ^CBcl-2; ^cBcl-2; source: MCF-7, stably transfected clone, in live cells; not shown: mCerulean3, N-terminal, kept

mCerulean3-Bcl-XL = target: T3, mCerulean3-Bcl-XL (human, UniProt Q07817-1 1-233); experiment: as above; conditions: partners not purified
T3 construct: Bcl-XL, human; GGS linker between mCerulean3 and Bcl-XL; also called ^CBcl-XL; ^cBcl-XL; source: MCF-7 and BMK-DKO, stably transfected clones, in live cells; not shown: mCerulean3, N-terminal, kept

[3] = target: T1, Bcl-XL single-cysteine mutant 152C, …; experiment: FRET or BRET; purified proteins with liposomes, protein binding (FRET) and liposome permeabilization measured at the same time, ABT-263 titrated; conditions: both partners purified

T1 sequence (Q07817 other isoform, or with tags, fused parts or gaps mutant): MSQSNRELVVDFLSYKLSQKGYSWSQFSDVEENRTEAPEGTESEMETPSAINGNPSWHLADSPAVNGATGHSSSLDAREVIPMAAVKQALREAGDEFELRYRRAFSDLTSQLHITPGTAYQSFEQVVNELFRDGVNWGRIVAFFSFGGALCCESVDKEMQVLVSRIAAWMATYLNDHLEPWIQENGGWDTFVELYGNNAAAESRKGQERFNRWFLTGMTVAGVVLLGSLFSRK
T3 sequence (Q07817 whole entry): as the sequence (Q07817 other isoform, or with tags, fused parts or gaps mutant) above, with C152V counted along it
T2 sequence (P10415 whole entry): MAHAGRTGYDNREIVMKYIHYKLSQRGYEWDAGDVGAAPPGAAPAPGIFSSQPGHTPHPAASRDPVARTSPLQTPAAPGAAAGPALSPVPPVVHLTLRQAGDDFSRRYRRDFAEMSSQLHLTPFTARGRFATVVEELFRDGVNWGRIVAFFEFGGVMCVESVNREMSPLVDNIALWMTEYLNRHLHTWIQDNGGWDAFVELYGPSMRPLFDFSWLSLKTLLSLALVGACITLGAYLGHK

Binder | Kd [1] | IC50 of ABT-263 for displacing the pair [2] | R_(ABT-263), % of FRET signal left with 20 uM ABT-263 (mCerulean3-Bcl-2) | R_(ABT-263), % of FRET signal left with 20 uM ABT-263 (mCerulean3-Bcl-XL) | IC50 of ABT-263 for FRET of the pair [3]
BimL-dCTS, Alexa568-labelled (domain or fragment, Alexa568 on a single cysteine) MAKQPSDVSSECDREGGQLQPAERPPQLRPGAPTSLQTEPCDRSPAPMSCDKSTQTPSPPCQAFNHYLSAMASIRQSQEEPEDLRPEIRIAQELRRIGDEFNETYTRRVFANDYREAEDHP | 35 ± 5 nM | ~200 nM | – | – | –
Venus-BimEL (natural protein, mouse, UniProt O54918-1 1-196, looked up, BimEL, mouse; GGS linker after Venus; also called ^VBimEL; ^vBimEL; source: MCF-7 and BMK-DKO, transiently transfected, in live cells; not shown: Venus, N-terminal, kept) MAKQPSDVSSECDREGGQLQPAERPPQLRPGAPTSLQTEPQGNPDGEGDRCPHGSPQGPLAPPASPGPFATRSPLFIFVRRSSLLSRSSSGYFSFDTDRSPAPMSCDKSTQTPSPPCQAFNHYLSAMASIRQSQEEPEDLRPEIRIAQELRRIGDEFNETYTRRVFANDYREAEDHPQMVILQLLRFIFRLVWRRH | – | – | 83.1% | 86.3% | –
Venus-BimEL-V192E (natural protein, mouse, UniProt O54918-1 1-196, looked up, BimEL, mouse; also called ^VBimEL-V192E; ^vBimEL-V192E; source: MCF-7, transiently transfected, in live cells; not shown: Venus, N-terminal, kept) MAKQPSDVSSECDREGGQLQPAERPPQLRPGAPTSLQTEPQGNPDGEGDRCPHGSPQGPLAPPASPGPFATRSPLFIFVRRSSLLSRSSSGYFSFDTDRSPAPMSCDKSTQTPSPPCQAFNHYLSAMASIRQSQEEPEDLRPEIRIAQELRRIGDEFNETYTRRVFANDYREAEDHPQMVILQLLRFIFRLEWRRH | – | – | 64.8% | 70.1% | –
Venus-BimEL-L185E (natural protein, mouse, UniProt O54918-1 1-196, looked up, BimEL, mouse; also called ^VBimEL-L185E; ^vBimEL-L185E; source: MCF-7, transiently transfected, in live cells; not shown: Venus, N-terminal, kept) MAKQPSDVSSECDREGGQLQPAERPPQLRPGAPTSLQTEPQGNPDGEGDRCPHGSPQGPLAPPASPGPFATRSPLFIFVRRSSLLSRSSSGYFSFDTDRSPAPMSCDKSTQTPSPPCQAFNHYLSAMASIRQSQEEPEDLRPEIRIAQELRRIGDEFNETYTRRVFANDYREAEDHPQMVILQLERFIFRLVWRRH | – | – | 51% | 41.9% | –
Venus-BimEL-I188E (natural protein, mouse, UniProt O54918-1 1-196, looked up, BimEL, mouse; also called ^VBimEL-I188E; ^vBimEL-I188E; source: MCF-7, transiently transfected, in live cells; not shown: Venus, N-terminal, kept) MAKQPSDVSSECDREGGQLQPAERPPQLRPGAPTSLQTEPQGNPDGEGDRCPHGSPQGPLAPPASPGPFATRSPLFIFVRRSSLLSRSSSGYFSFDTDRSPAPMSCDKSTQTPSPPCQAFNHYLSAMASIRQSQEEPEDLRPEIRIAQELRRIGDEFNETYTRRVFANDYREAEDHPQMVILQLLRFEFRLVWRRH | – | – | 63% | 51% | –
Venus-BimEL-I181E (natural protein, mouse, UniProt O54918-1 1-196, looked up, BimEL, mouse; also called ^vBimEL-I181E; source: MCF-7, transiently transfected, in live cells; not shown: Venus, N-terminal, kept) MAKQPSDVSSECDREGGQLQPAERPPQLRPGAPTSLQTEPQGNPDGEGDRCPHGSPQGPLAPPASPGPFATRSPLFIFVRRSSLLSRSSSGYFSFDTDRSPAPMSCDKSTQTPSPPCQAFNHYLSAMASIRQSQEEPEDLRPEIRIAQELRRIGDEFNETYTRRVFANDYREAEDHPQMVELQLLRFIFRLVWRRH | – | – | 73.3% | 63.9% | –
Venus-BimEL-I146Y-L185E (natural protein, mouse, UniProt O54918-1 1-196, looked up, BimEL, mouse; also called ^vBimEL-I146Y-L185E; source: MCF-7, transiently transfected, in live cells; not shown: Venus, N-terminal, kept) MAKQPSDVSSECDREGGQLQPAERPPQLRPGAPTSLQTEPQGNPDGEGDRCPHGSPQGPLAPPASPGPFATRSPLFIFVRRSSLLSRSSSGYFSFDTDRSPAPMSCDKSTQTPSPPCQAFNHYLSAMASIRQSQEEPEDLRPEIRYAQELRRIGDEFNETYTRRVFANDYREAEDHPQMVILQLERFIFRLVWRRH | – | – | 36.9% | 40% | –
Venus-BimEL-CTS2A (natural protein, mouse, UniProt O54918-1 1-196, looked up, BimEL, mouse; also called ^VBim-CTS2A; ^vBimEL-CTS2A; source: MCF-7, transiently transfected, in live cells; not shown: Venus, N-terminal, kept) MAKQPSDVSSECDREGGQLQPAERPPQLRPGAPTSLQTEPQGNPDGEGDRCPHGSPQGPLAPPASPGPFATRSPLFIFVRRSSLLSRSSSGYFSFDTDRSPAPMSCDKSTQTPSPPCQAFNHYLSAMASIRQSQEEPEDLRPEIRIAQELRRIGDEFNETYTRRVFANDYREAEDHPQMVILQLLAFIFALVWRRH | – | – | 80.7% | 88.8% | –
Venus-BimEL-I146Y (natural protein, mouse, UniProt O54918-1 1-196, looked up, BimEL, mouse; also called ^vBimEL-I146Y; source: MCF-7, transiently transfected, in live cells; not shown: Venus, N-terminal, kept) MAKQPSDVSSECDREGGQLQPAERPPQLRPGAPTSLQTEPQGNPDGEGDRCPHGSPQGPLAPPASPGPFATRSPLFIFVRRSSLLSRSSSGYFSFDTDRSPAPMSCDKSTQTPSPPCQAFNHYLSAMASIRQSQEEPEDLRPEIRYAQELRRIGDEFNETYTRRVFANDYREAEDHPQMVILQLLRFIFRLVWRRH | – | – | 65.3% | 88.7% | –
BimL single-cysteine mutant 41C, Alexa568-labelled (natural protein, Alexa 568-maleimide on the single cysteine at 41) MAKQPSDVSSECDREGGQLQPAERPPQLRPGAPTSLQTEPCDRSPAPMSCDKSTQTPSPPCQAFNHYLSAMASIRQSQEEPEDLRPEIRIAQELRRIGDEFNETYTRRVFANDYREAEDHPQMVILQLLRFIFRLVWRRH | 3 ± 1 nM | > 4000 nM | – | – | > 700 nM
